Results from patent US20120064075.

Target: type IV collagen

B1: murine chimera FIXGla-Egf1FVIIa (protein)
chain: MKHLNTVMAESPALITIFLLGYLLSTECAVFLDRENATKILTRPKRYNSGKLEEFVRGNLERECIEERCSFEEAREVFENTEKTTEFWKQYVDGDQCESNPCLNGGICKDDISSYECWCQVGFEGRNCEFSKNEQLICANENGDCDQYCRDHVGTKRTCSCHEDYTLQPDEVSCKPKVEYPCGRIPVVEKRNSSSRQGRRKRRKRIVGGNVCPKGECPWQAVLKINGLLLCGAVLLDARWIVTAAHCFDNIRYWGNITVVMGEHDFSEKDGDEQVRRVTQVIMPDKYIRGKINHDIALLRLHRPVTFTDYVVPLCLPEKSFSENTLARIRFSRVSGWGQLLDRGATALELMSIEVPRLMTQDCLEHAKHSSNTPKITENMFCAGYMDGTKDACKGDSGGPHATHYHGTWYLTGVVSWGEGCAAIGHIGVYTRVSQYIDWLVRHMDSKLQVGVFRLPLL
  ELISA measurements of expressed chimera in blood 10 minutes after a bolus of FIX: a 4-fold increase in the chimeric protein was measured
